Experimental data published in patent publication US20260008818A1, “CYCLIC PEPTIDE OR SALT THEREOF, AND USES THEREOF” (FUJIFILM Corporation, priority 2023, published 2026).
Bridge positions count the residues as written; N and C are the ends. Square brackets hold non-standard residues; d marks the D form. Ends that are not written are not given here. NMeL = CN[C@@H](CC(C)C)C(=O)O; hCys = N[C@@H](CCS)C(=O)O; Orn = NCCC[C@H](N)C(=O)O; Dap = NC[C@H](N)C(=O)O

B1: SEQ ID NO: 381 (peptide)
peptide: H[Dap]SYERLQFHGHEAPFRV[hCys]VKKK
modifications: bridge 2-19; not fully specified (residue 2, bridges); printed as H-(Dap(acetyl))-SYERLQFHGHEAPFRV-(Hcy)-VKKK
notes: chemically synthesized
B2: SEQ ID NO: 388 (peptide)
peptide: HXSYERXIFHGHEAPFWVXVKKK
modifications: not fully specified; Hle (homoleucine); Orn(acetyl); Hcy; thioether ring (Orn(acetyl))-(Hcy)
notes: chemically synthesized

How the values were obtained:
[1] = tested on: Recombinant Human FGFR 1 alpha (IIIc) Fc Chimera Protein; experiment: Binding affinity of chemically synthesized cyclic peptide to immobilized FGFR by SPR; conditions: 10 nmol/L cyclic peptide, 25° C., binding amount per one molecule of FGFR, chemically synthesized product
Protocol: The binding affinity of the cyclic peptide to FGFR was evaluated using a surface plasmon resonance (SPR) method.
(§1) A CM5 sensor chip (Cytiva, 29149603) was set in Biacore-T200 (manufactured by Cytiva) which is a surface plasmon resonance device, and an HBS-EP buffer (Cytiva, BR100826) was added as a running buffer at a flow rate of 10 μL/min to equilibrate the flow channel. Next, 70 μL of a mixed aqueous solution of 0.2 mol/L 1-(3-dimethylaminopropyl)-3-ethylcarbodiimide (EDC) and 0.05 mol/L N-hydroxysuccinimide (NHS) was added to activate the sensor chip. Then, Recombinant Human FGFR 1 alpha (IIIc) Fc Chimera Protein CF (R&D systems, 658-FR-050) prepared at 50 nmol/L in an Acetate 4.5 buffer (Cytiva, BR100350) was added thereto to perform immobilization at about 5000 RU. Thereafter, the blocking treatment was performed with an ethanolamine solution. In addition, in another flow channel of the same sensor chip, blocking treatment was performed immediately after activation without immobilizing FGFR.
(§2) A cyclic peptide diluted to 10 nmol/L using HBS-EP was added to each flow channel of the FGFR-immobilized sensor chip produced above at 25° C. for 10 minutes, then HBS-EP was allowed to flow as a running buffer for 30 minutes, and the binding of the cyclic peptide to FGFR was measured. Thereafter, a regeneration treatment of removing the bound cyclic peptide was performed by repeating the flow of a regeneration liquid in which sodium chloride powder was dissolved in Glysine 1.5 (Cytiva, BR100354) to a final concentration of 0.15 mol/L for 1 minute in each flow channel twice. The binding amount of the cyclic peptide was evaluated from the difference between the measured value of Biacore-T200 in the flow channel in which FGFR was immobilized and the measured value of Biacore-T200 in the flow channel in which FGFR was not immobilated, in a case where a 10 nmol/L cyclic peptide was allowed to flow.
The binding amount of the cyclic peptide evaluated above was normalized to the binding amount of the cyclic peptide molecules per one molecule of FGFR using the molecular weights of the cyclic peptide and FGFR, and the binding affinity to FGFR was evaluated according to the following evaluation criteria. The evaluation result preferably satisfies the evaluation criteria A, B, or C.
• A: The binding amount is 0.7 molecules of the cyclic peptide/one molecule of FGFR or more. • B: The binding amount is 0.5 molecules of the cyclic peptide/one molecule of FGFR or more and less than 0.7 molecules of cyclic peptide/one molecule of FGFR. • C: The binding amount is 0.1 molecules of cyclic peptide/one molecule of FGFR or more and less than 0.5 molecules of cyclic peptide/one molecule of FGFR. • D: The binding amount is less than 0.1 molecules of the cyclic peptide/one molecule of FGFR.

[2] = Molecular stability of cyclic peptide after reducing agent (DTT) treatment, LC; format: physicochemical; conditions: residual rate after 12.6 mmol/L DTT aqueous solution, room temperature, 1 hour
Protocol: The molecular stability of the cyclic peptide was evaluated by analyzing an aqueous solution of the cyclic peptide treated with a reducing agent by liquid chromatography (LC).
The reducing agent treatment was performed under the following conditions based on the concentration of glutathione contained in the cells. 25 μL of a 0.2 mg/mL cyclic peptide aqueous solution was prepared, 58.8 μL of a 12.6 mmol/L DTT aqueous solution was added to the aqueous solution, and the mixture was incubated at room temperature for 1 hour to obtain an aqueous solution of the cyclic peptide treated with a reducing agent. The DTT aqueous solution was used by diluting a 1 mol/L (+-)-dithiothreitol (DTT) solution (FUJIFILM Wako Pure Chemical Corporation, 044-33871) with water. The total area of all the peaks in LC/MS of the cyclic peptide before the reducing agent treatment was set to 100%, and the proportion of the total area of all the peaks in LC/MS of the aqueous solution of the cyclic peptide treated with the reducing agent was determined to calculate the residual rate of the cyclic peptide, and the molecular stability was evaluated according to the following evaluation criteria. The evaluation result preferably satisfies the evaluation criteria A, B, or C.
• A: The residual rate of cyclic peptide is 90% or more. • B: The residual rate of the cyclic peptide is 70% or more and less than 90% • C: The residual rate of the cyclic peptide is 50% or more and less than 70% • D: The residual rate of the cyclic peptide is less than 50%
The LC used for the evaluation of molecular stability was set to the following conditions. • LC device: Prominence series (pump, column oven, autosampler, detector) (manufactured by Shimadzu Corporation) • Detector: photodiode array detector (SPD-M20A), measurement wavelength of 280 nm • Column: TSKgel ODS-100V, inner diameter of 4.6 mm×length of 150 mm, particle diameter of 5 μm (manufactured by Tosoh Corporation) • Eluent A: solution containing 0.1% trifluoroacetic acid as solute, and solvent is 100% water • Eluent B: solution containing 0.1% trifluoroacetic acid as solute, and solvent is 100% acetonitrile • Flow rate: 1.0 mL/min • Injection amount: 25 μL • Gradient: 20% to 50%: Eluent B (0 to 15 minutes), 100%: Eluent B (15 minutes) • Column temperature: 40° C.

[3] = molecular target: T1, Recombinant Human FGFR1 alpha (IIIc) Fc Chimera Protein, CF (R&D systems, 658-FR-050) (human, UniProt P11362 22-376); experiment: SPR, FGFR1-Fc immobilized, 10 nmol/L peptide
T1 construct: bought reagent; not shown: Fc of the bought chimera
T1 sequence (looked up): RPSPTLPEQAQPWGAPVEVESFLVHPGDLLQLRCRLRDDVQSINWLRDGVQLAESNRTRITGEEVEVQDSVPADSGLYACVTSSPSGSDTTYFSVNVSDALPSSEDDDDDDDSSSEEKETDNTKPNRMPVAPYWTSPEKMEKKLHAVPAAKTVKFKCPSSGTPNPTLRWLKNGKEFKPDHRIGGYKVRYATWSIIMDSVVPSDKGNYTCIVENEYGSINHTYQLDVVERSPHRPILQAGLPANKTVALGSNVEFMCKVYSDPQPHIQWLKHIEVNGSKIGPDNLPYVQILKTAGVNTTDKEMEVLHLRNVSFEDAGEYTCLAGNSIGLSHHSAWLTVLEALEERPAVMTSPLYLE
Protocol: as §1, §2

Molecule	Evaluation result of binding affinity to FGFR [1]	Evaluation result of reductive stability [2]	binding amount (SPR, cyclic peptide molecules bound per one molecule of FGFR at 10 nmol/L peptide) [3]
386 ({CH2CO}-HASYERLIFHGHEAPFWVCVKKK; thioether N-19 (inferred)) [compound 386]	B (The binding amount is 0.5 molecules of the cyclic peptide/one molecule of FGFR or more and less than 0.7 molecules of cyclic peptide/one molecule of FGFR.)	A (The residual rate of cyclic peptide is 90% or more.)	
376 (HXSYERLQFHGHEAPFRVXVKKK; not fully specified; Description of Artificial Sequence: Cyclic peptide) [compound 376]	A (The binding amount is 0.7 molecules of the cyclic peptide/one molecule of FGFR or more.)	A (The residual rate of cyclic peptide is 90% or more.)	
384 (H[Orn]SYERLIFHGHEAPFWV[hCys]VKKK; bridge 2-19; not fully specified (residue 2, bridges); printed as H-(Orn(acetyl))-SYERLIFHGHEAPFWV-(Hcy)-VKKK) [compound 384]	A (The binding amount is 0.7 molecules of the cyclic peptide/one molecule of FGFR or more.)	B (The residual rate of the cyclic peptide is 70% or more and less than 90%)	
381 (HXSYERLQFHGHEAPFRVXVKKK; not fully specified; Description of Artificial Sequence: Cyclic peptide) [compound 381]	A (The binding amount is 0.7 molecules of the cyclic peptide/one molecule of FGFR or more.)	A (The residual rate of cyclic peptide is 90% or more.)	
387 (H[Orn]SYER[NMeL]IFHGHEAPFWV[hCys]VKKK; bridge 2-19; not fully specified (residue 2, bridges)) [compound 387]	A (The binding amount is 0.7 molecules of the cyclic peptide/one molecule of FGFR or more.)	A (The residual rate of cyclic peptide is 90% or more.)	
375 (HXSYERLQFHGHEAPFRVXVKKK; not fully specified; Description of Artificial Sequence: Cyclic peptide) [compound 375]	A (The binding amount is 0.7 molecules of the cyclic peptide/one molecule of FGFR or more.)	A (The residual rate of cyclic peptide is 90% or more.)	
380 (HXSYERLQFHGHEAPFRVXVKKK; not fully specified; Description of Artificial Sequence: Cyclic peptide) [compound 380]	A (The binding amount is 0.7 molecules of the cyclic peptide/one molecule of FGFR or more.)	A (The residual rate of cyclic peptide is 90% or more.)	
389 (H[Orn]SYERLIFHGHEAPFWV[hCys]KKK; bridge 2-19; not fully specified (residue 2, bridges); printed as H-(Orn(acetyl))-SYERLIFHGHEAPFWV-(Hcy)-KKK) [compound 389]	A (The binding amount is 0.7 molecules of the cyclic peptide/one molecule of FGFR or more.)	A (The residual rate of cyclic peptide is 90% or more.)	
385 ([Orn]SYERLIFHGHEAPFWV[hCys]KKK; bridge 1-18; not fully specified (residue 1, bridges); printed as (Orn(acetyl))-SYERLIFHGHEAPFWV-(Hcy)-KKK) [compound 385]	C (The binding amount is 0.1 molecules of cyclic peptide/one molecule of FGFR or more and less than 0.5 molecules of cyclic peptide/one molecule of FGFR.)	A (The residual rate of cyclic peptide is 90% or more.)	
377 (HXSYERLQFHGHEAPFRVXVKKK; not fully specified; Description of Artificial Sequence: Cyclic peptide) [compound 377]	A (The binding amount is 0.7 molecules of the cyclic peptide/one molecule of FGFR or more.)	A (The residual rate of cyclic peptide is 90% or more.)	
374 (HXSYERLQFHGHEAPFRVKVKKK; not fully specified; Description of Artificial Sequence: Cyclic peptide) [compound 374]	A (The binding amount is 0.7 molecules of the cyclic peptide/one molecule of FGFR or more.)	A (The residual rate of cyclic peptide is 90% or more.)	
383 (HCSYERLQFHGHEAPFRVCVKKK; disulfide 2-19) [compound 383]		D (The residual rate of the cyclic peptide is less than 50%)	
B1			≥ 0.7 moleculesofthecyclicpeptide/onemoleculeoffgfr
Ac-HASYERLIFHGHEAPFWVCVKKK (bridge N-19; not fully specified; printed as (Ac)-HASYERLIFHGHEAPFWV-(C)-VKKK, chemically synthesized) [SEQ ID NO: 386]			0.5 to 0.7 moleculesofthecyclicpeptide/onemoleculeoffgfr
HXSYERLIFHGHEAPFWVXKKK (not fully specified; Orn(acetyl); Hcy; thioether ring (Orn(acetyl))-(Hcy), chemically synthesized) [SEQ ID NO: 389]			≥ 0.7 moleculesofthecyclicpeptide/onemoleculeoffgfr
B2			≥ 0.7 moleculesofthecyclicpeptide/onemoleculeoffgfr
XSYERLIFHGHEAPFWVXKKK (not fully specified; Orn(acetyl); Hcy; thioether ring (Orn(acetyl))-(Hcy), chemically synthesized) [SEQ ID NO: 385]			0.1 to 0.5 moleculesofthecyclicpeptide/onemoleculeoffgfr
XSYERLIFHGHEAPFWVXVKKK (not fully specified; Orn(acetyl); Hcy; thioether ring (Orn(acetyl))-(Hcy), chemically synthesized) [SEQ ID NO: 390]			0.1 to 0.5 moleculesofthecyclicpeptide/onemoleculeoffgfr
